This note sets out measurements from publication PMC9482650, “Quantitative fragmentomics allow affinity mapping of interactomes” (Nature Communications, 2022).

T1: APBA2_2, Q99767
T1 sequence (Q99767 654-744, limits assumed, looked up): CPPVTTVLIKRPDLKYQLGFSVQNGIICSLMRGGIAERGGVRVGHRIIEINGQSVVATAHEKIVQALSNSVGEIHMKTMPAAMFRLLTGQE

T2: ARHGAP21, Q5T5U3
T2 sequence (Q5T5U3 45-169, limits assumed, looked up): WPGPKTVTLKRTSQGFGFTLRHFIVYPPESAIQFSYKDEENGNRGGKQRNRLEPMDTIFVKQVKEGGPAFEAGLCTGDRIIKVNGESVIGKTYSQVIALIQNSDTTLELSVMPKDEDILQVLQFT

T3: DFNB31_2, Q9P202
T3 sequence (Q9P202 274-371, limits assumed, looked up): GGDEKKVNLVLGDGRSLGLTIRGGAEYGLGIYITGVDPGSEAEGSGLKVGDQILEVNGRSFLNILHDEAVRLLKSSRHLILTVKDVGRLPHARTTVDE

T4: DLG3_1, Q92796
T4 sequence (Q92796 125-227, limits assumed, looked up): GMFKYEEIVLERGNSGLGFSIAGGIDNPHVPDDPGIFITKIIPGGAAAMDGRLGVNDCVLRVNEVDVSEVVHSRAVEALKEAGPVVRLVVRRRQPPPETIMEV

T5: LIN7A, O14910
T5 sequence (O14910 103-200, limits assumed, looked up): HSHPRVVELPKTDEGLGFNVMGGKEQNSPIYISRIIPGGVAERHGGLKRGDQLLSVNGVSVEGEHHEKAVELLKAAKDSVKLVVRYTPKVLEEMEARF

T6: LRRC7, Q96NW7
T6 sequence (Q96NW7 1440-1537, limits assumed, looked up): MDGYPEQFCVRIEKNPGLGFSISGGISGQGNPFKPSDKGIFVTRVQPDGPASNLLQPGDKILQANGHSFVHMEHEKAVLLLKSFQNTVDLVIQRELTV

T7: MPDZ_10, O75970
T7 sequence (O75970 1624-1722, limits assumed, looked up): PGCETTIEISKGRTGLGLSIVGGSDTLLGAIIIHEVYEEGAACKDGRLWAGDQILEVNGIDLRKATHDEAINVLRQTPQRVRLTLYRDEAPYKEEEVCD

T8: MPDZ_12, O75970
T8 sequence (O75970 1857-1958, limits assumed, looked up): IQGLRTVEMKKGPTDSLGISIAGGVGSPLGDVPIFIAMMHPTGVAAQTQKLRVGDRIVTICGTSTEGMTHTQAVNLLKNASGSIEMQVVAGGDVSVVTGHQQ

T9: MPDZ_5, O75970
T9 sequence (O75970 695-796, limits assumed, looked up): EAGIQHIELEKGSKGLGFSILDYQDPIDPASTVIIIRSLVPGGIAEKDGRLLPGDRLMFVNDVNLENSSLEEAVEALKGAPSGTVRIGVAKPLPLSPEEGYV

T10: NHERF3_1, Q5T2W1
T10 sequence (Q5T2W1 4-100, limits assumed, looked up): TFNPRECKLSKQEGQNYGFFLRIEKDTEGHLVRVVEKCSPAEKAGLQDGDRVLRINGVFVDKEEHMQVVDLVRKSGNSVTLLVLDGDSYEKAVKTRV

T11: NHERF3_4, Q5T2W1
T11 sequence (Q5T2W1 373-468, limits assumed, looked up): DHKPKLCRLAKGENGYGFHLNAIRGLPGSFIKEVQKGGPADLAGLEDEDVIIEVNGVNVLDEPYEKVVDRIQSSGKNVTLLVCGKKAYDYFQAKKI

T12: PDZRN3_1, Q9UPQ7
T12 sequence (Q9UPQ7 244-349, limits assumed, looked up): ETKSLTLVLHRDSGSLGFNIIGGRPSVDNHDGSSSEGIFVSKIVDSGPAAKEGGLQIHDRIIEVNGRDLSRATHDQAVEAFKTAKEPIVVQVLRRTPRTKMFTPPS

T13: TX1BP3, O14907
T13 sequence (O14907 10-122, limits assumed, looked up): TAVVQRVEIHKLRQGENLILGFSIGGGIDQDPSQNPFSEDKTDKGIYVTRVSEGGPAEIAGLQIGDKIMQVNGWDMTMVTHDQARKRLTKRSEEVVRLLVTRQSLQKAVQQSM

B1: CLDN1, O95832 (peptide)
chain: PAPSSGKDYV
B2: TRMT13, Q9NUP7 (peptide)
chain: NHSSSPETTA

Chain of IL16_3, Q14005 (Q14005 1107-1207): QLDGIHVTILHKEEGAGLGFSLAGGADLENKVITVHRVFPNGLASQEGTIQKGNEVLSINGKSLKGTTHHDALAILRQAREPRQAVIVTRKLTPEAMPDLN

The target of one assay is T1, APBA2_2, Q99767. Briefly: holdup assay. Also noted: key: below the threshold = too weak to quantify, mostly under pKd 3.1 to 4. Conditions: plain residues with an end cap or a label only (N-terminal biotin on a linker: ado-ado).
One may read the pKd as the negative decadic logarithm of the Kd, by convention in mol/L. Take B1: the pKd result is on record as “below the threshold”.

For the molecule B2, the pKd result is listed as “below the threshold”.

The next assay has as its target T2, ARHGAP21, Q5T5U3. Nature of the assay: holdup assay. The settings on record: plain residues with an end cap or a label only (N-terminal biotin on a linker: ado-ado). Also noted: key: below the threshold = too weak to quantify, mostly under pKd 3.1 to 4.
B1: the pKd entry is given as “below the threshold”.

Regarding B2, the pKd result is on record as “below the threshold”.

In another assay the target is T3, DFNB31_2, Q9P202. Briefly: holdup assay. Conditions: plain residues with an end cap or a label only (N-terminal biotin on a linker: ado-ado). Also noted: key: below the threshold = too weak to quantify, mostly under pKd 3.1 to 4.
Turning to B1, the negative-log Kd (pKd) result is given as “below the threshold”.

As for B2, the pKd result was “below the threshold”.

The target of a further assay is DLG1_2, Q12959. Nature of the assay: holdup assay. Also noted: key: below the threshold = too weak to quantify, mostly under pKd 3.1 to 4. The settings on record: plain residues with an end cap or a label only (N-terminal biotin on a linker: ado-ado).
Chain of DLG1_2, Q12959 (Q12959 314-412): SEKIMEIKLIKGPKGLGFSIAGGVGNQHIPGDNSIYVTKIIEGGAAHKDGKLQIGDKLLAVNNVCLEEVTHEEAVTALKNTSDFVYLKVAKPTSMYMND
Turning to B1, the pKd result was “below the threshold”.

B2: the pKd entry is “below the threshold”.

For a further assay, the target named is DLG2_2, Q15700. Briefly: holdup assay. Also noted: key: below the threshold = too weak to quantify, mostly under pKd 3.1 to 4. The settings on record: plain residues with an end cap or a label only (N-terminal biotin on a linker: ado-ado).
For the molecule B1, the pKd entry was “below the threshold”.

As to B2, the pKd result is reported as “below the threshold”.

A further assay addresses DLG2_3, Q15700. Nature of the assay: holdup assay. Also noted: key: below the threshold = too weak to quantify, mostly under pKd 3.1 to 4. The settings on record: plain residues with an end cap or a label only (N-terminal biotin on a linker: ado-ado).
Take B1: the pKd result is “below the threshold”.

Take B2: the pKd is 3.67.

For another assay, the target named is T4, DLG3_1, Q92796. Nature of the assay: holdup assay. Also noted: key: below the threshold = too weak to quantify, mostly under pKd 3.1 to 4. The settings on record: plain residues with an end cap or a label only (N-terminal biotin on a linker: ado-ado).
As for B1, the pKd entry is recorded as “below the threshold”.

B2: the pKd result is “below the threshold”.

The next assay deals with HTRA1, Q92743. Briefly: holdup assay. Conditions: plain residues with an end cap or a label only (N-terminal biotin on a linker: ado-ado). Also noted: key: below the threshold = too weak to quantify, mostly under pKd 3.1 to 4.
Chain of HTRA1, Q92743 (Q92743 360-477): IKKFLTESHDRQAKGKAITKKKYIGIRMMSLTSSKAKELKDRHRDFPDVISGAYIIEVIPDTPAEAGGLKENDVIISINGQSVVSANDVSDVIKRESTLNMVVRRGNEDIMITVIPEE
B1 showed a pKd of 3.94.

B2: the negative-log Kd (pKd) result is “below the threshold”.

A further assay addresses IL16_3, Q14005. Nature of the assay: holdup assay. Also noted: key: below the threshold = too weak to quantify, mostly under pKd 3.1 to 4. Conditions: plain residues with an end cap or a label only (N-terminal biotin on a linker: ado-ado).
Turning to B1, the pKd entry is listed as “below the threshold”.

Consider B2, for which the pKd result was “below the threshold”.

For a further assay, the target named is T5, LIN7A, O14910. Nature of the assay: holdup assay. Conditions: plain residues with an end cap or a label only (N-terminal biotin on a linker: ado-ado). Also noted: key: below the threshold = too weak to quantify, mostly under pKd 3.1 to 4.
For the molecule B1, the pKd entry is listed as “below the threshold”.

With B2, the pKd result was “below the threshold”.

The target in a further assay is T6, LRRC7, Q96NW7. Nature of the assay: holdup assay. Also noted: key: below the threshold = too weak to quantify, mostly under pKd 3.1 to 4. The settings on record: plain residues with an end cap or a label only (N-terminal biotin on a linker: ado-ado).
Regarding B1, the pKd entry is “below the threshold”.

With B2, the negative logarithm of the Kd (pKd) result is recorded as “below the threshold”.

The target of a further assay is MAGI2_5, Q86UL8. Nature of the assay: holdup assay. Also noted: key: below the threshold = too weak to quantify, mostly under pKd 3.1 to 4. Conditions: plain residues with an end cap or a label only (N-terminal biotin on a linker: ado-ado).
Chain of MAGI2_5, Q86UL8 (Q86UL8 915-1017): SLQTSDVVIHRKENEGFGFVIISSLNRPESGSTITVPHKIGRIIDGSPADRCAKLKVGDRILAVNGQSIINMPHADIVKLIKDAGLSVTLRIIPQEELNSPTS
As to B1, the negative-log Kd (pKd) entry is “below the threshold”.

B2: the negative logarithm of the Kd (pKd) entry is listed as “below the threshold”.

For another assay, the target named is MAST1, Q9Y2H9. Nature of the assay: holdup assay. Also noted: key: below the threshold = too weak to quantify, mostly under pKd 3.1 to 4. The settings on record: plain residues with an end cap or a label only (N-terminal biotin on a linker: ado-ado).
Chain of MAST1, Q9Y2H9 (Q9Y2H9 962-1065): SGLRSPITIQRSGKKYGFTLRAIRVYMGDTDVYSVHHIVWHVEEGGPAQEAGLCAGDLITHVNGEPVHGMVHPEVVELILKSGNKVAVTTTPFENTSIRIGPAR
Molecule B1 returned a pKd of 3.51.

B2 registered a pKd of 3.55.

The target of a further assay is T7, MPDZ_10, O75970. Briefly: holdup assay. The settings on record: plain residues with an end cap or a label only (N-terminal biotin on a linker: ado-ado). Also noted: key: below the threshold = too weak to quantify, mostly under pKd 3.1 to 4.
In the case of B1, the pKd result is “below the threshold”.

For the molecule B2, the pKd result is listed as “below the threshold”.

The next assay deals with T8, MPDZ_12, O75970. Nature of the assay: holdup assay. The settings on record: plain residues with an end cap or a label only (N-terminal biotin on a linker: ado-ado). Also noted: key: below the threshold = too weak to quantify, mostly under pKd 3.1 to 4.
For the molecule B1, the pKd result is listed as “below the threshold”.

As for B2, the negative-log Kd (pKd) entry was “below the threshold”.

The target in the next assay is T9, MPDZ_5, O75970. Nature of the assay: holdup assay. Also noted: key: below the threshold = too weak to quantify, mostly under pKd 3.1 to 4. The settings on record: plain residues with an end cap or a label only (N-terminal biotin on a linker: ado-ado).
For B1, the pKd entry is “below the threshold”.

With B2, the negative-log Kd (pKd) entry is “below the threshold”.

The target in another assay is T10, NHERF3_1, Q5T2W1. Briefly: holdup assay. Also noted: key: below the threshold = too weak to quantify, mostly under pKd 3.1 to 4. Conditions: plain residues with an end cap or a label only (N-terminal biotin on a linker: ado-ado).
Regarding B1, the pKd worked out at 4.08.

B2: the pKd entry is recorded as “below the threshold”.

Another assay concerns the target T11, NHERF3_4, Q5T2W1. Briefly: holdup assay. Also noted: key: below the threshold = too weak to quantify, mostly under pKd 3.1 to 4. The settings on record: plain residues with an end cap or a label only (N-terminal biotin on a linker: ado-ado).
B1: the negative logarithm of the Kd (pKd) entry was “below the threshold”.

On to B2, for which the pKd result is recorded as “below the threshold”.

For the next assay, the target named is NOS1, P29475. Nature of the assay: holdup assay. Also noted: key: below the threshold = too weak to quantify, mostly under pKd 3.1 to 4. Conditions: plain residues with an end cap or a label only (N-terminal biotin on a linker: ado-ado).
Chain of NOS1, P29475 (P29475 9-101): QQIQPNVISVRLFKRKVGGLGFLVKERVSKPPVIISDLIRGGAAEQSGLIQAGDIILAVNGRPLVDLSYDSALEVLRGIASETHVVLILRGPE
Turning to B1, the pKd was determined as 4.06.

As to B2, the pKd entry is recorded as “below the threshold”.

The target in the next assay is T12, PDZRN3_1, Q9UPQ7. Nature of the assay: holdup assay. Also noted: key: below the threshold = too weak to quantify, mostly under pKd 3.1 to 4. Conditions: plain residues with an end cap or a label only (N-terminal biotin on a linker: ado-ado).
Regarding B1, the pKd result is reported as “below the threshold”.

With B2, the pKd entry is recorded as “below the threshold”.

The target in the next assay is PICK1, Q9NRD5. Nature of the assay: holdup assay. Also noted: key: below the threshold = too weak to quantify, mostly under pKd 3.1 to 4. The settings on record: plain residues with an end cap or a label only (N-terminal biotin on a linker: ado-ado).
Chain of PICK1, Q9NRD5 (Q9NRD5 17-115): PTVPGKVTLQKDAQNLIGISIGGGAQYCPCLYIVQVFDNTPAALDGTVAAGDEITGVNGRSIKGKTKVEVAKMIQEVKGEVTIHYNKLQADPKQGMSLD
Regarding B1, the pKd entry is “below the threshold”.

Turning to B2, the pKd result is on record as “below the threshold”.

In the next assay the target is PTPN3, P26045. Briefly: holdup assay. Also noted: key: below the threshold = too weak to quantify, mostly under pKd 3.1 to 4. The settings on record: plain residues with an end cap or a label only (N-terminal biotin on a linker: ado-ado).
Chain of PTPN3, P26045 (P26045 505-587): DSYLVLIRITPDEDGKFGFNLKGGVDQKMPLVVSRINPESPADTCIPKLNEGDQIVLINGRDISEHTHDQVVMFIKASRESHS
With B1, the pKd entry was “below the threshold”.

On to B2, for which the pKd was found to be 3.88.

In another assay the target is TJP1_2, Q07157. Nature of the assay: holdup assay. Also noted: key: below the threshold = too weak to quantify, mostly under pKd 3.1 to 4. The settings on record: plain residues with an end cap or a label only (N-terminal biotin on a linker: ado-ado).
Chain of TJP1_2, Q07157 (Q07157 181-274): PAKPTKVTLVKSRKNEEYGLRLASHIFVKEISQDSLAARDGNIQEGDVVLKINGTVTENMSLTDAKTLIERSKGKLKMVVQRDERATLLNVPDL
With B1, the pKd entry is “below the threshold”.

For the molecule B2, the pKd result was “below the threshold”.

Another assay concerns the target T13, TX1BP3, O14907. Nature of the assay: holdup assay. The settings on record: plain residues with an end cap or a label only (N-terminal biotin on a linker: ado-ado). Also noted: key: below the threshold = too weak to quantify, mostly under pKd 3.1 to 4.
On to B1, for which the pKd result is recorded as “below the threshold”.

As for B2, the pKd came to 3.87.
